According to PMC9201380, “Structural Characterization of a Neutralizing Nanobody With Broad Activity Against SARS-CoV-2 Variants” (Frontiers in Microbiology, 2022):

Target: SARS-CoV-2 S receptor-binding domain (residues 330-531), Avi-tagged and biotinylated (SARS-CoV-2, UniProt P0DTC2)
Assay: BLI; Octet RED96; biotinylated RBD (2 μg mL^-1) immobilized on SA sensor; DL28 as analyte at 2, 5, 10 and 20 nM; 30°C; 1x PBS, 0.05% Tween 20; association 360 s, dissociation 600 s; 1:1 fit
Conditions: both partners purified

B1: DL28 (monovalent nanobody) (VHH)
VHH: QVQLQESGGGLVQAGGSLRLSCAASGSDFSSSTMGWYRQAPGKQREFVAISSEGSTSYAGSVKGRFTISRDNAKNTVYLQMNSLEPEDTAVYYCNVVDRWYDYWGQGTQVTVSA
notes: also called monovalent DL28
  Kd: 1.56 nM
